± gives the uncertainty stated by the source.
Experiment: self-splicing fitness, log relative to wild type (ln ratio); higher = more splicing; Tetrahymena group I intron in knt gene, E. coli kanamycin selection, DiMSum; sequences stand for … in CUCUCU…GGAGGGAAAAGUUAUCAGGCAUGCACCUGGUAGCUAGUCUUUAAACCAAUAGAUUGCAUCGGUUUAAAAGGCAAGACCGUCAAAUUGCGGGAAAGGGGUCAACAGCCGUUCAGUACCAAGUCUCAGGGGAAACUUUGAGAUGGCCUUGCAAAGGGUAUGGUAAUAAGCUGACGGACAUGGUCCUAACCACGCAGCCAAGUCCUAAGUCAACAGAUCUUCUGUUGAUAUGGAUGCAGUUCACAGACUAAAUGUCGGUCGGGGAAGAUGUAUUCUUCUCAUAAGAUAUAGUCGGACCUCUCCUUAAUGGGAGCUAGCGGAUGAAGUGAUGCAACACUGGAGCCGCUGGGAACUAAUUUGUAUGCGAAAGUAUAUUGAUUAGUUUUGGAGUACUCGUGGUCG
Method in brief: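 Pooled colonies went to amplicon sequencing on an Illumina HiSeq 2500 after six replicate transformations. The plates were LB agar with 100 μg/mL carbenicillin, 50 μM IPTG and 0.2% rhamnose, with or without 25 μg/mL kanamycin, incubated overnight at 37°C or 30°C. The E. coli BL21(DE3) library had all eight P1ex-region intron nucleotides randomised, the intron placed in the knt kanamycin-resistance gene on pET-22b(+). DiMSum fitness is the error-weighted combination of replicate fold changes, kanamycin against none, normalised to wild type.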

Sequence | self-splicing fitness (ln) (30 °C) | self-splicing fitness (ln) (37 °C)
UACCAGCAAUAUUACGUCCG | -0.95 ± 0.058 | -0.0389 ± 0.083
UACCAGCAAUAUUACGUGGA | -2.89 ± 0.15 | -2.08 ± 0.12
UACGAGCAAUAUUACGAAGG |  | -0.765 ± 0.3
UACGAGCAAUAUUACGAGAU | -3.99 ± 0.46 | -2.99 ± 0.38
UACGAGCAAUAUUACGAGGU | -3.41 ± 0.19 | -3.16 ± 0.17
UACGAGCAAUAUUACGAGUC | -2.81 ± 0.38 | -3.01 ± 0.43
UACGAGCAAUAUUACGAGUU | -2.32 ± 0.2 | -0.892 ± 0.23
UACGAGCAAUAUUACGCAAC | -2.85 ± 0.22 | -2.19 ± 0.26
UACGAGCAAUAUUACGCAUU | -3.48 ± 0.43 | -2.09 ± 0.46
UACGAGCAAUAUUACGCCAA | -2.18 ± 0.41 | 
UACGAGCAAUAUUACGCCGC | -2.03 ± 0.41 | -2.1 ± 0.3
UACGAGCAAUAUUACGCCUA | -1.81 ± 0.15 | -0.823 ± 0.16
UACGAGCAAUAUUACGCGCA | -1.42 ± 0.19 | -1.03 ± 0.17
UACGAGCAAUAUUACGCGGC | -3.65 ± 0.37 | -2.28 ± 0.28
UACGAGCAAUAUUACGGAGA | -3.09 ± 0.33 | -2.84 ± 0.45
UACGAGCAAUAUUACGGAUG | -2.95 ± 0.43 | -1.27 ± 0.34
UACGAGCAAUAUUACGGCAG | -2.22 ± 0.23 | -1.65 ± 0.21
UACGAGCAAUAUUACGGCCG | -0.704 ± 0.13 | -1.01 ± 0.21
UACGAGCAAUAUUACGGUGU |  | -3.09 ± 0.29
UACGAGCAAUAUUACGUCAU | -4.92 ± 0.45 | -3.92 ± 0.39
UACGAGCAAUAUUACGUCGC | -3.3 ± 0.47 | -2.49 ± 0.42
UACGAGCAAUAUUACGUGCC | -2.35 ± 0.29 | 
UACGAGCAAUAUUACGUUAA | -3.08 ± 0.26 | -1.57 ± 0.14
UACGAGCAAUAUUACGUUAC | -2.96 ± 0.42 | 
UACGAGCAAUAUUACGUUGG |  | -2.22 ± 0.26
UACUAGCAAUAUUACGACCU | -2.01 ± 0.13 | -0.83 ± 0.15
UACUAGCAAUAUUACGACGA | -0.687 ± 0.058 | -0.172 ± 0.066

Sequence | self-splicing fitness (ln) (30 °C) | self-splicing fitness (ln) (37 °C)
UACUAGCAAUAUUACGACUC | -1.8 ± 0.42 | -0.907 ± 0.34
UACUAGCAAUAUUACGACUU | -1.27 ± 0.08 | -0.271 ± 0.11
UACUAGCAAUAUUACGAUAC | -2.63 ± 0.2 | -1.91 ± 0.25
UACUAGCAAUAUUACGAUCA | -1.21 ± 0.07 | -0.774 ± 0.063
UACUAGCAAUAUUACGAUCG | 0.0068 ± 0.092 | 0.387 ± 0.12
UACUAGCAAUAUUACGCAAC | -2.26 ± 0.26 | -1.85 ± 0.34
UACUAGCAAUAUUACGCAAG | -2.98 ± 0.33 | -1.72 ± 0.24
UACUAGCAAUAUUACGCCUC | -2.28 ± 0.24 | -1.78 ± 0.28
UACUAGCAAUAUUACGCUAA | -1.31 ± 0.14 | -0.697 ± 0.1
UACUAGCAAUAUUACGCUAU | -2.8 ± 0.21 | -1.32 ± 0.16
UACUAGCAAUAUUACGCUUA | -1.38 ± 0.11 | -0.588 ± 0.11
UACUAGCAAUAUUACGGACG | -0.258 ± 0.098 | 0.0809 ± 0.12
UACUAGCAAUAUUACGGAGG | -2.77 ± 0.17 | -1.28 ± 0.13
UACUAGCAAUAUUACGGCCG | 0.508 ± 0.14 | 0.00712 ± 0.17
UACUAGCAAUAUUACGUCAG | -1.72 ± 0.2 | -1.43 ± 0.21
UACUAGCAAUAUUACGUCGU | -2.15 ± 0.16 | -1.96 ± 0.18
UACUAGCAAUAUUACGUGAC | -2.29 ± 0.13 | -1.93 ± 0.26
UACUAGCAAUAUUACGUGGG | -3.32 ± 0.19 | -2.46 ± 0.18
UACUAGCAAUAUUACGUUCA | -0.586 ± 0.08 | -0.193 ± 0.09
UAGAAGCAAUAUUACGAACG | -0.0437 ± 0.11 | 0.576 ± 0.14
UAGAAGCAAUAUUACGAAGC |  | -2.2 ± 0.24
UAGAAGCAAUAUUACGAGGU |  | -2.14 ± 0.2
UAGAAGCAAUAUUACGCAAG | -2.33 ± 0.2 | -0.64 ± 0.17
UAGAAGCAAUAUUACGCAGC | -4.25 ± 0.46 | -2.93 ± 0.31
UAGAAGCAAUAUUACGCAUU | -2.41 ± 0.29 | -2.59 ± 0.3
UAGAAGCAAUAUUACGCUCU | -2.53 ± 0.2 | -2.75 ± 0.32
UAGAAGCAAUAUUACGCUUA | -1.9 ± 0.15 | -0.832 ± 0.14

Sequence | self-splicing fitness (ln) (30 °C) | self-splicing fitness (ln) (37 °C)
UAGAAGCAAUAUUACGGACC | -2 ± 0.4 | -0.433 ± 0.34
UAGAAGCAAUAUUACGGAGA | -3.26 ± 0.39 | -2.46 ± 0.26
UAGAAGCAAUAUUACGGCCU | -0.838 ± 0.12 | -1.15 ± 0.15
UAGAAGCAAUAUUACGGGUA | -1.02 ± 0.16 | -0.329 ± 0.14
UAGAAGCAAUAUUACGGUAA | -1.64 ± 0.091 | -0.669 ± 0.073
UAGAAGCAAUAUUACGGUCG | -0.229 ± 0.1 | 0.153 ± 0.14
UAGAAGCAAUAUUACGUAAG | -2.31 ± 0.13 | -1.3 ± 0.16
UAGAAGCAAUAUUACGUCAG | -0.574 ± 0.078 | -0.0756 ± 0.092
UAGAAGCAAUAUUACGUCAU | -2.84 ± 0.2 | -1.99 ± 0.15
UAGAAGCAAUAUUACGUCCA | -0.0908 ± 0.069 | 0.309 ± 0.1
UAGAAGCAAUAUUACGUCGA | -1.61 ± 0.14 | -0.578 ± 0.14
UAGAAGCAAUAUUACGUGAA | -2.05 ± 0.07 | -1.5 ± 0.092
UAGAAGCAAUAUUACGUGGG | -3.09 ± 0.18 | -2 ± 0.19
UAGAAGCAAUAUUACGUGUG | -0.994 ± 0.069 | -0.74 ± 0.084
UAGCAGCAAUAUUACGAAAU | -1.96 ± 0.24 | -1.66 ± 0.28
UAGCAGCAAUAUUACGACAC |  | -2.15 ± 0.33
UAGCAGCAAUAUUACGACAG | -0.896 ± 0.1 | -0.68 ± 0.13
UAGCAGCAAUAUUACGACGC | -3.94 ± 0.31 | -1.82 ± 0.19
UAGCAGCAAUAUUACGAGCU | -1.5 ± 0.13 | -0.893 ± 0.14
UAGCAGCAAUAUUACGAUAU | -2.42 ± 0.15 | -2.98 ± 0.19
UAGCAGCAAUAUUACGAUCU | -1.92 ± 0.081 | -1.08 ± 0.077
UAGCAGCAAUAUUACGCACG | -0.945 ± 0.13 | -0.318 ± 0.14
UAGCAGCAAUAUUACGCCAG | -1.46 ± 0.13 | -0.751 ± 0.19
UAGCAGCAAUAUUACGCCCA | -0.744 ± 0.3 | 0.445 ± 0.47
UAGCAGCAAUAUUACGGAAA | -1.82 ± 0.17 | -1.81 ± 0.29
